Assays:
[1] = biological target: ubiquitin (Homo sapiens (assumed; species not …, UniProt P0CG48); assay: ELISA
[2] = biological target: His-p67C (p67 residues 572-651) (Theileria parva, strain not told, UniProt Q4MZ78); assay: ELISA
[3] = biological target: T1, p67C^1 (p67 residues 572-612) (Theileria parva, UniProt Q4MZ78); assay: ELISA
T1 chain: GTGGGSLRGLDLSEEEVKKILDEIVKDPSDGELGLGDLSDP

[4] = biological target: bovine serum albumin (Bos taurus, UniProt P02769); assay: ELISA
[5] = biological target: full-length p67 of Theileria parva with a C-terminal His-tag (Theileria parva, strain not told, UniProt Q4MZ78); assay: BLI
[6] = biological target: the fusion tag (GST) (Schistosoma japonicum (assumed, usual …, UniProt P08515 = GST)); assay: ELISA

Sequence of bovine serum albumin (P02769 25-607): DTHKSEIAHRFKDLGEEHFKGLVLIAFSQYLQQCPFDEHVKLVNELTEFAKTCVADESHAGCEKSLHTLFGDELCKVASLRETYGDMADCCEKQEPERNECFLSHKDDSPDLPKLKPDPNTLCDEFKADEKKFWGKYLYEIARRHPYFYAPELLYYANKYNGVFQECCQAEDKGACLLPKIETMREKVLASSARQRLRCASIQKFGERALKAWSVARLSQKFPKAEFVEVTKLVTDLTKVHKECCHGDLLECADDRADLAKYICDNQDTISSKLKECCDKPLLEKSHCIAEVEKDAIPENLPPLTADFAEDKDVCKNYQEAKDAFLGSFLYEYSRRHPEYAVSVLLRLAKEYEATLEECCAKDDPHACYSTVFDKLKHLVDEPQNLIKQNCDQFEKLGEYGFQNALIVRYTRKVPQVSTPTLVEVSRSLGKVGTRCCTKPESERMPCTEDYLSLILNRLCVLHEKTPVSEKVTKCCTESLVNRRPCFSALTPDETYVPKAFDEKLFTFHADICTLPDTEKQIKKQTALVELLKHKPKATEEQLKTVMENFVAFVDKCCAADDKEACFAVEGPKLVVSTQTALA

B1: Fab B11 (Fab, V domains shown)
VH: EVQLVESGGGLVQPGGSLRLSCAASGFNISSSSIHWVRQAPGKGLEWVASISPYYSSTSYADSVKGRFTISADTSKNTAYLQMNSLRAEDTAVYYCARGPGYAMDYWGQGTLVTVSS
VL: DIQMTQSPSSLSASVGDRVTITCRASQSVSSAVAWYQQKPGKAPKLLIYSASSLYSGVPSRFSGSRSGTDFTLTISSLQPEDFATYYCQQYYYAPITFGQGTKVEIK
binding result [1]: no binding
EC50 [2]: 25 nM
binding result [3]: binds
binding result [4]: no binding
Kd [5]: 79 nM

B2: Fab B11 displayed on phage (Fab, V domains shown)
VH: EVQLVESGGGLVQPGGSLRLSCAASGFNISSSSIHWVRQAPGKGLEWVASISPYYSSTSYADSVKGRFTISADTSKNTAYLQMNSLRAEDTAVYYCARGPGYAMDYWGQGTLVTVSS
VL: DIQMTQSPSSLSASVGDRVTITCRASQSVSSAVAWYQQKPGKAPKLLIYSASSLYSGVPSRFSGSRSGTDFTLTISSLQPEDFATYYCQQYYYAPITFGQGTKVEIK
binding result [6]: no binding

Source: article PMC12086512 (Protein Science : A Publication of the Protein Society, 2025)
